From patent US6495346 come the findings set out here.

Holding throughout (assay): cell-based or functional assay
Test [1] concerns the target LCK-Gal4 (UniProt P04386).
The target of test [2] is m-fos-Gal4 (SV40).
The target in test [3] is wt-fos-Gal4 (SV40).

Sequence of m-jun-VP16 (P06492 411-455, tags or fused parts left off): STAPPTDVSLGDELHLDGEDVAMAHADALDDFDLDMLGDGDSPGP
Sequence of CD4-VP16 (P06492 whole entry): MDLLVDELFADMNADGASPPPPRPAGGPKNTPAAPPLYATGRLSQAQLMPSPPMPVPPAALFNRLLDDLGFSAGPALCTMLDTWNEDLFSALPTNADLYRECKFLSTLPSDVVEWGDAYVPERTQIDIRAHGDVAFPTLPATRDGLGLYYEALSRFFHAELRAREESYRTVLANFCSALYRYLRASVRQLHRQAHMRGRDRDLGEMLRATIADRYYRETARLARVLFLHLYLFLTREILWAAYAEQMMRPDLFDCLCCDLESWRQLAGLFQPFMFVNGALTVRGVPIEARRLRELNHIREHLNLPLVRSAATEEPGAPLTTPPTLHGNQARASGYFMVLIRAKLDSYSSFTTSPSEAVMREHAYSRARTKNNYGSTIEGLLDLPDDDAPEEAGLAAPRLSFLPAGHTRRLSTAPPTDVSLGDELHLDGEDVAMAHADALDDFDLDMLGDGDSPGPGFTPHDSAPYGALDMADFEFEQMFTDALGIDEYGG
Sequence of wt-jun-VP16 (P06492 411-455, tags or fused parts left off): as the sequence (P06492 411-455, tags or fused parts left off) above

On to CD4-VP16 (from UniProt P06492 406-488), for which, in test [1], the Luciferase values (RLU), MeWo cells, G0/G1-synchronized cells, 10xBS Gal4-SV40 promoter (Tyr-LCK-Gal4-CycACD4-VP16) is 5990 RLU and the Luciferase values (RLU), MeWo cells, proliferating cells, 10xBS Gal4-SV40 promoter (Tyr-LCK-Gal4-CycACD4-VP16) was determined as 72400 RLU.

“m-jun-VP16 (from UniProt P06492 411-455; P05412 276-312)”: in test [2], the Luciferase values (RLU), MeWo cells, G0/G1-synchronized cells, 10xBS Gal4-SV40 promoter is 271 RLU; the Luciferase values (RLU), MeWo cells, G0/G1-synchronized cells, 10xBS Gal4-SV40 promoter, both subunits on one plasmid (Tyr-m-fos-CycA-m-jun) was determined as 12700 RLU; the Luciferase values (RLU), MeWo cells, proliferating cells, 10xBS Gal4-SV40 promoter stood at 18300 RLU; the Luciferase values (RLU), MeWo cells, proliferating cells, 10xBS Gal4-SV40 promoter, both subunits on one plasmid (Tyr-m-fos-CycA-m-jun) worked out at 1.02e+06 RLU. In test [3], this substance yielded a Luciferase values (RLU), MeWo cells, G0/G1-synchronized cells, 10xBS Gal4-SV40 promoter of 224 RLU and a Luciferase values (RLU), MeWo cells, proliferating cells, 10xBS Gal4-SV40 promoter of 290 RLU.

With “wt-jun-VP16 (from UniProt P06492 411-455; P05412 276-312)”, in test [2], the Luciferase values (RLU), MeWo cells, G0/G1-synchronized cells, 10xBS Gal4-SV40 promoter came to 283 RLU and the Luciferase values (RLU), MeWo cells, proliferating cells, 10xBS Gal4-SV40 promoter is 284 RLU.
